Test results as given in US8975044B2, “Polynucleotides encoding for frizzled-binding agents and uses thereof” (OncoMed Pharmaceuticals, Inc., priority 2008, dated 2015).

B1: 18R5: human anti-FZD antibody; VH SEQ ID NO:10 (as 18R8), VL SEQ ID NO:14; binds FZD1, 2, 5, 7, 8 (antibody, V domains shown)
VH: EVQLVESGGGLVQPGGSLRLSCAASGFTFSHYTLSWVRQAPGKGLEWVSVISGDGSYTYYADSVKGRFTISSDNSKNTLYLQMNSLRAEDTAVYYCARNFIKYVFANWGQGTLVTVSS
VL: DIELTQPPSVSVAPGQTARISCSGDNIGSFYVHWYQQKPGQAPVLVIYDKSNRPSGIPERFSGSNSGNTATLTISGTQAEDEADYYCQSYANTLSLVFGGGTKLTVLG
modifications: 18R5/18R8 heavy chain variable region (VH); 18R5 light chain variable region (VL)
B2: 18R8: human anti-FZD antibody from phage display; VH SEQ ID NO:10, VL SEQ ID NO:12; binds FZD1, 2, 5, 7, 8 (antibody, V domains shown)
VH: B1 VH
VL: DIELTQPPSVSVAPGQTARISCSGDKLGKKYASWYQQKPGQAPVLVIYEKDNRPSGIPERFSGSNSGNTATLTISGTQAEDEADYYCSSFAGNSLEVFGGGTKLTVLG
modifications: 18R5/18R8 heavy chain variable region (VH); 18R8 light chain variable region (VL)

How the values were obtained:
OMP-PN13 cells = assay: Tumorgenic potential of Muc16-positive cells sorted from 18R5-treated OMP-PN13 tumors; format: in vivo, NOD/SCID mice; conditions: 75 cells per mouse, 10 mice; no tumor from Muc16+ cells, 7 of 10 from Muc16− cells
Method: OMP-PN13-bearing mice were treated with 18R5 according to the protocol described in Example 21. Mice were euthanized 12 days after initiation of the Ab treatment. Tumors were harvested and processed to obtain a single cell suspension using collagenase III to digest the tissues. Mouse stromal cells were stained with a biotinylated anti-H-2 Kd antibody and a biotinylated anti-CD45 antibody. They were then incubated with magnetic beads conjugated to streptavidin (Thermo MagnaBind) and depleted using a Dynal magnet. The resulting lin-depleted tumor cells were stained with an anti-Muc16 mAb detected with a PE-conjugated secondary Ab. Muc16− positive and Muc16− negative cells were sorted using an ARIA FACS machine ran by the DIVA software. Cells were re-injected subcutaneously in the left flank of NOD/SCID mice for comparison of their tumorgenic potentials. Each cell type was injected into 10 mice. Each mouse received 75 cells. Representative pictures of tumors resulting from the injection of Muc16− (upper panel) and Muc16+(lower panel) cells are shown in FIG. 52B. No tumor grew after injection of the Muc16+cells, while 7 of the 10 mice injected with the Muc16− cells developed tumors.

[1] = tested on: OMP-LU33 human lung tumors; assay: OMP-LU33 lung tumor xenograft growth; format: in vivo, NOD-SCID mice; conditions: antibodies 10 mg/kg IP twice per week
Method: 10,000 OMP-LU33 human lung tumor cells were injected subcutaneously in NOD-SCID mice. Tumors were allowed to grow for 30 days until they reached an average volume of 124 mm^3. The animals were randomized into 4 groups (n=10 per group) and treated with either control antibody (squares), Avastin® (triangles pointing down), anti-FZD 18R5 (triangles pointing up), or the combination of 18R5 plus Avastin® (circles).

PN13 tumors = assay: Alcian blue and ki67 staining of treated PN13 tumor sections; format: in vivo, NOD/SCID mice; conditions: vs control antibody
Method: FIG. 43. Treatment with anti-FZD antibody 18R5 promotes differentiation of tumor cells into non-proliferative mucinous cells. NOD/SCID mice were injected with 50,000 OMP-PN13 pancreatic tumor cells and on day 23, mice with tumors of average volume of about 107 mm^3 were randomized, and treatment with control antibody or 18R5 was initiated four days later. After 20 days tumors were collected and sectioned. Tumor sections from 18R5 treated mice or control antibody treated mice were stained with alcian blue stain to reveal mucinous cells and by immunohistochemistry with antibody to ki67 to reveal proliferative cells. Exemplary mucinous cells and proliferative cells are highlighted by arrows.
Increased mucinous cells were also noted in a second pancreatic tumor line, PN13, following treatment with 18R5 […] (FIG. 43). In this experiment mice bearing PN13 tumors were treated as described above (Example 7). Tumors sections were stained with alcian blue to reveal mucinous cells and also stained by immunohistochemistry with an antibody to ki67 to reveal cells undergoing proliferation. […] Additionally, the frequency of ki67 positive cells was reduced by 18R5 treatment. […] This provides evidence that 18R5 treatment is promoting the differentiation of tumor cells into non-proliferative progeny.

PN4 pancreatic tumor = PN4 pancreatic tumor recurrence study; format: in vivo, Nod-Scid mice; conditions: gemcitabine 75 mg/kg once per week for 5 weeks, then antibody 10 mg/kg once per week
Method: PN4 pancreatic tumor recurrence study with 18R5 mAb: PN4 pancreatic tumor cells were injected into Nod-Scid mice and allowed to grow until the tumors had reached approximately 250 mm^3. The animals were given gemcitabine (75 mg/kg, once per week) for 5 weeks until tumors had regressed. The animals were randomized into two groups and given control antibody (black squares) or anti-FZD 18R5 (gray open circles). Antibodies were dosed at 10 mg/kg once per week.

FZD8 binding to Wnt3A = target: T1, FZD8 binding to Wnt3A (Homo sapiens, UniProt Q9H461); assay: Blocking of FZD8-Fc binding to Wnt3A (protein A depletion, STF293 reporter readout); format: biochemical; conditions: co-incubation with FZD8-Fc and Wnt3A conditioned medium, 2 hrs at 4° C., protein A beads removed
T1 construct: amino acids 1-157 of FZD8 linked in-frame to human IgG1 Fc
T1 sequence (Q9H461 28-157): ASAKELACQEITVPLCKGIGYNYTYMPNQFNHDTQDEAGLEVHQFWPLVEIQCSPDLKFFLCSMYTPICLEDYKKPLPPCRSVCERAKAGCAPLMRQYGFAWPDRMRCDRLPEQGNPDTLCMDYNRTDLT
Method: To assess the ability of 18R8 to block the binding of FZD to Wnt, 2 μl of 1.32 μg/μl soluble FZD8-Fc containing the Fri domain (amino acids 1-157 of FZD8 linked in-frame to human IgG1 Fc) was added to culture medium to bind Wnt3A (added as 20 μl of Wnt3A conditioned medium) either alone or in the presence of the 18R8 IgG antibody (added as 4 μl of 3.71 μg/μl). The mixtures were incubated either alone or in the presence of Protein A sepharose beads (GE Healthcare products; 20 μl of 50% solution in PBS) for two hrs at 4° C. After the incubation, the protein A beads (and any proteins complexed to the protein A beads) in each sample were removed by spinning and the supernatant was assayed for ability to induce 8×TCF luciferase activity. The supernatant was added to STF293 cells, which stably express 8×TCF (eight copies of the TCF-binding domain upstream of a firefly luciferase reporter gene) to measure canonical Wnt signaling levels and which were cultured in DMEM supplemented with antibiotics and 10% FCS. Eighteen hours following treatment of the STF293 cells, luciferase levels were measured using a dual luciferase assay kit (Promega; Madison, Wis.).

| Molecule | tumorgenicity of 18R5-induced Muc16+ cells (OMP-PN13 cells) | xenograft tumor growth [1] | alcian blue positive mucinous cells (PN13 tumors) | frequency of ki67 positive cells (PN13 tumors) | tumor recurrence after gemcitabine treatment (PN4 pancreatic tumor) | blocking of FZD8 binding to Wnt3A (FZD8 binding to Wnt3A) |
| --- | --- | --- | --- | --- | --- | --- |
| B1 | non-tumorgenic | inhibits OMP-LU33 xenograft tumor growth | greatly increased numbers of alcian blue positive mucinous cells | reduced | delay tumor recurrence |  |
| B2 |  |  |  |  |  | blocked the ability of FZD8 to bind to Wnt3A |
